Results as given in the nanobody polyreactivity screen of Harvey et al. (2022).

assay: yeast display, Sf9 membrane polyspecificity reagent, FACS + sequencing; frameworks hold sequencing errors
In short: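 In a synthetic yeast display library (Saccharomyces cerevisiae BJ5465), nanobody expression was induced with galactose for 36–48 hours. FACS gates were set low and high (top ~1%) using anti-HA fluorescence for expression and streptavidin fluorescence for binding of the Sf9 membrane reagent. Each polyreactivity label is drawn from the gate of origin.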

Question: Which “polyreactivity (PSR sort gate)” value does the source give for “QVQLVESGGGLVHAGGSLRLSCAACGRIFTYYAMGWYRQAPGKERELVAAITWSGGSTYYADSVKGRFTISRDNAKNTVYLQMNSLKPEDTAVYYCNAVVLHVTTDNSTFTTDDYWGQGTQVTVSS” here?
Answer: The value was “low polyreactivity”.

Question: For “QVQLVESGGGLVQAGGSLRLSCAASGSTFGTYAMGWYRQEPGKERELVAAIRWSGVSTYYADSVKGRFTISRDNAKNTVYLQMNSLKPEDTAVYYCAVALWVRGTYIYEYWGQGTQVTVSS”, which “polyreactivity (PSR sort gate)” value is on record?
Answer: Its value is “high polyreactivity”.

Question: With “QVQLVESGGGLVQAAGSLRLSSAASGLIFPYYVMGWYRQAPGKERELVAAISVSGGNTYYADSVKGRFTITRDNAKYTVYLQLNSLKPVDTAVYYSAADHYRGSYDYWGQGSQVTVSS” as the sequence, how does the “polyreactivity (PSR sort gate)” value read?
Answer: Its value is “high polyreactivity”.

Question: Which “polyreactivity (PSR sort gate)” value does the source give for “QVQHVESGGGLVQAGGSLRLSCASSGRIFYFYAMGWYRQAPGKLRELVAAISTSGGSTYYADSVKGRFKISRDNATNTVYLQMNSLKPEDPAVYYCAGRFRYYGSEYDYWGQGTQVTVSS” here?
Answer: Its value is “low polyreactivity”.

Question: For “QVQLVESGGGLVQAGGSLRLSCAASGSTIVRYAMGWNRQAPGKERELVAAISSRGGCTYYADSVKGRFTISRDNAKNTVYLQMNSLKPEDTAVYYCNADYSVGSWGQGTQVTVSS”, which “polyreactivity (PSR sort gate)” value is on record?
Answer: The value was “high polyreactivity”.

Question: Which “polyreactivity (PSR sort gate)” value does the source give for “QVQLVESGGGLVQAGGSLRLSCAASGRTFKHYAMGWYRQAPGKERELVAAITSGGSTYYADSVKGRFTISRDNAKNTVYLLMNSLIPEDTAVYYCNKESYFDTYRRYDSWGHGTQVTVSS” here?
Answer: Its value is “low polyreactivity”.

Question: For “KVQLVESGGGLVQAGGSLRLSCAASGRIFYYNAMGWYRQAPGKERELVAVITGGGSTNYADSVKGRFTISRDNAKNTVYLQMNSLKPEDTAGYYCAARRAWGTKYHGYDYWGQGTQVNVSS”, which “polyreactivity (PSR sort gate)” value is on record?
Answer: The value was “low polyreactivity”.

Question: For “QVQLVETGGGLVQAGGSLRLSCAASGSTFQLYAMGWYRQAPGKERDFVAAISNGGRTNYADSVKGRFTISRDNAKNTVYLQMTSLKPEDTAVYYCNADQVWWSFDRVLVGYEYWGKGTQVTVSS”, which “polyreactivity (PSR sort gate)” value is on record?
Answer: Its value is “low polyreactivity”.

Question: For “QFQLVESGGGLVQAGGSLRLSCAASGFIFYRNAMGGYRQAPGKERELVAGITSGGRPYYADSVKGRFTISRDNAKNTVYLQMNCLKPEDTGVYYCAARRSRPTYYSTGVNYWGQGTQVTVSS”, which “polyreactivity (PSR sort gate)” value is on record?
Answer: The value was “high polyreactivity”.

Question: Which “polyreactivity (PSR sort gate)” value does the source give for “QVQLVESGGGLVQAGGSLRLSCAASGSTLAVYAMGSYRQAPGKERELVAAISKRGGTTYYADSVKGRFTISRDNAKNTVYLQMYSLKPDDTAVYYCARESYYRGNYDYDYWGQGTQVTVSS” here?
Answer: Its value is “high polyreactivity”.

Question: Which “polyreactivity (PSR sort gate)” value does the source give for “QVQLVESGGGLVQAGGSLRLSCAASGLTFNKYAMGWYRQGPGKERELVAAISYRGGSTYYADSVKGRFTISRDNAKNTVYLQMNSLKPEDTAVYYCAVRYWALDDQYRYGSWGQGTQVTVSS” here?
Answer: Its value is “high polyreactivity”.

Question: With “QVQLVESGGGLVQAGGSLRLSCAASGSIFGPYAMGWYRQAPGKERELVAGITRSVGSTYYADSVKGRFTISRDNAKNTVFLQMNSLKPEDTAVYYCNAKWLYSRWAGYDYWGQGTQVTVSS” as the sequence, how does the “polyreactivity (PSR sort gate)” value read?
Answer: The value was “low polyreactivity”.

Question: Which “polyreactivity (PSR sort gate)” value does the source give for “QVQLVESGGGLVQAGGSLRLSCAASGRIIVDNAMGWYRQAPGKERELVAAITNGGSTSYADSVKGRFTISRDNAKNTVYLQMNSLKPEDTAVYYCNADEDLRGYDYWGQGTQVTVSS” here?
Answer: Its value is “low polyreactivity”.

Question: With “QVQLVESGGGLVQAGGSLRLSCPASGTTIVSNAMGWYRQAPGKERDLVAAISSSGGRTSYADSVKGRFTISRDNAKNTVSLQMNSLKPEDTAVYYCAADHPPGDTYEYWGQGTQVSVSS” as the sequence, how does the “polyreactivity (PSR sort gate)” value read?
Answer: Its value is “low polyreactivity”.

Question: For “QVQLVESGGALVQAGGSLRLSCAASGLTFEVYAMGWYRQAPGKESELVAAISSGGGSTYYADSVKGRFTISRDNAKNTVYLQMNSLKPEDTEVYYCNAVAKLYYWRYDYWGKGTQVTVSS”, which “polyreactivity (PSR sort gate)” value is on record?
Answer: Its value is “low polyreactivity”.

Question: For “QVQLVESGGGLVQAGGSLRLSCAASGSIFGFYAMGWYRQAPGKERELVAAISSDGGSTYYADSVKGRFTISRDNAKNTVYLQMNSLKPEDTAVYYCAAAHGSIYDSTYYEYYYWGQGTQVTVSS”, which “polyreactivity (PSR sort gate)” value is on record?
Answer: Its value is “low polyreactivity”.

Question: With “QVQLVESGGGIVKAGGSLRISCAASGSTFIVNAMGWYRQAPGKERELVAAITEDGDTTYYADSVKGRFTISRDNAKNTVYLQMNSLKPEDTAVYFCAAETYYLDDYWGQGTQVTVSS” as the sequence, how does the “polyreactivity (PSR sort gate)” value read?
Answer: Its value is “high polyreactivity”.

Question: With “QVQLVESGGGLVQAGGSLRLSCAASGRIFDINAMGWYRQAPGKERELVAAINYNGSSTYYADSVKGRFTISRDNAKNTVYLEMNSLKPEDTAVYYCATEQVDVYTYDYWGQGTQVTVSS” as the sequence, how does the “polyreactivity (PSR sort gate)” value read?
Answer: Its value is “high polyreactivity”.

Question: For “QVHLVESGGGLVQAGGSLRLSCSASGSTFYIYTMGCYRQAPGKARELVAAISSSGGSTYYADSVKGRFTISRDNAKNTVYLQMNILKPEDTAVYYCAADPWVRLEYDYWGQGTQVTVSS”, which “polyreactivity (PSR sort gate)” value is on record?
Answer: Its value is “low polyreactivity”.

Question: Which “polyreactivity (PSR sort gate)” value does the source give for “QVQLVESGGGLVQAGGSLRLSCAASGSTSSVYTMGWYRPAPGKERELVASISIRGTRTYADSVKGRFTISRDNAKNTVYLQMNSLKPEDTAVYYCAARYPWYVYTIYGYWGQGTQVTVSS” here?
Answer: Its value is “high polyreactivity”.

Question: With “QVQLVESGGGLVQAGGSLRLSCAASGRTFRLYAMGWYREAPGKERELVAAISYSGGSTYYADSVKGRFTISRDNAKNTVYLPMNSLKPEDTAVYYCAAYSGYYGGDDYWGQGTQVTVSS” as the sequence, how does the “polyreactivity (PSR sort gate)” value read?
Answer: Its value is “high polyreactivity”.

Question: For “QVQLVESGGGLVQAGGSLRLSCAASGFIFRRYAMGWYRQAPGKERELVARISTIGGNTFYADSVKGRFTISRDTAKNTVYLQMNSLKPEDTAVYYCATTGGPSWRKYYSWGQGTQVTVSS”, which “polyreactivity (PSR sort gate)” value is on record?
Answer: The value was “high polyreactivity”.

Question: With “QVQLVESGGGLVQAGGSLRLSCAASGSTFRYNVMGWYRQAPGKERELVATISYSGGSTNYADSVKGRFTISRDNAKNSVYLEIKSLKPVDTAVYYCAARYLYPFYGYWWYDYWGQGTQVTVSS” as the sequence, how does the “polyreactivity (PSR sort gate)” value read?
Answer: The value was “high polyreactivity”.

Question: For “QVQLVESGGGLVQAGGSLRLSCAASGSIFYQYAMGWYRQAPGKEREFVAAITRRGTSTYYADSVKGRFTISRDIAKNTVYLQMNSLKPEDTAVYYCAARYGPNMDYWGQGTQVTVSS”, which “polyreactivity (PSR sort gate)” value is on record?
Answer: Its value is “high polyreactivity”.

Question: With “QVQLVESGGGLVQAGGSLRLSCAACGRTFYFYTMGWYRQAPGKERELVAAITRSGVSTYYADSVKGRFTISRDNAKNTVYLQMNSLKPEDTAVYYCAVRTWGYTQYYYWGQGTQVTVSS” as the sequence, how does the “polyreactivity (PSR sort gate)” value read?
Answer: Its value is “high polyreactivity”.

Question: With “QVQLVESGGGLVQAGGSLRLSCAASGRIIRGYVMGWYRQAPRKEREMVAITIGAGRTYYADSVKGRFTISRDNAKNTVYLQMNSLIPEDTAVYYCAADTYSTSGYYYWGQGTQVTVSS” as the sequence, how does the “polyreactivity (PSR sort gate)” value read?
Answer: The value was “low polyreactivity”.

Question: Which “polyreactivity (PSR sort gate)” value does the source give for “QVQLVESGGGLVQAGGSLRLSCAASGNTFPPNAMGWSRQAPGKERELVAAISWSGDSTYYADSVKGRFTISRDNAKNTVYLQMNSLKPEDTAVYYCAAAIFGEYEYWGQGTQVTVSS” here?
Answer: Its value is “low polyreactivity”.

Question: Which “polyreactivity (PSR sort gate)” value does the source give for “QVQLVESGGGLVQAGGSIRSSCAASGRTFGSNAMGWSRQAPGKERELVAAISSTVSTNYADSVKGRFTISRDNAKNTVYLQMNSLKPEDTAVYYCNVTRHYSYVSEYDYWGQGTQVTVSS” here?
Answer: Its value is “low polyreactivity”.

Question: For “QGQLVESGGGLVQAGGSLRLSCAASGFTFAGYARGWYRQAPGKERELVAAINRGGSTYYADSVKGRFTISRDNAKNTVYLQMNSLTPEDTAVYYCAARQEPGWYPDVWWEYDYWGQGTQVTVSS”, which “polyreactivity (PSR sort gate)” value is on record?
Answer: Its value is “low polyreactivity”.

Question: Which “polyreactivity (PSR sort gate)” value does the source give for “QVQLVESGGALDQARGSLSLSCAASGFLFGQNAMVWSRQAPGKLREFVATNNRSGGSTYYADSVKGRFTISRDNAKNTVYVQMNSLKPEDTAVYYCAKGPRMSSSLRYSAYWIMNYWGQGTQVTVSS” here?
Answer: The value was “high polyreactivity”.

Question: With “QVQLVESGGGLVQAGGSLRLSCAASGRIFESYAMGWYIQAPGKERELVAAISSGGGTTYYADSVKGLFTISRDNAKYSVYLQMNSLKPEDTAVYYCAADALSDEYDYWGQGTHVTVSS” as the sequence, how does the “polyreactivity (PSR sort gate)” value read?
Answer: Its value is “low polyreactivity”.

Question: Which “polyreactivity (PSR sort gate)” value does the source give for “QVQLVESGGGLVQAGGSLRLSCAASGGIFIGYAMGWYRQAPGKERELVARIRSSGGTTYYADSVKGRFTISRDNAKNTVYLQMNSLKPEDTAVYYCAKRTSSSWAYGPYYYWGQGTQVTVSS” here?
Answer: Its value is “high polyreactivity”.

Question: Which “polyreactivity (PSR sort gate)” value does the source give for “QVQVVESGGGLVQAGGSLRLSCAASGSTFSRNAMGWYRQAPGKERELVAAINYSGGITYYADSVKGRFTISRDNAKNTVYLQMNSQKPEDTAVYYCAAVATNVPTHGRPSRRAYDYWGQGTQVTVSS” here?
Answer: The value was “low polyreactivity”.

Question: With “QVQLVESGGGLVQAGGSLRLTCAASGIIFASNAMGWYRQAPGKEMELVATINWTDSSTYYADSVKGRFTISRDNAKNTVYLQMNSLKPEDTAVYYCNGVPHWFYRYGRYDYWGQGSQVTVSS” as the sequence, how does the “polyreactivity (PSR sort gate)” value read?
Answer: Its value is “low polyreactivity”.

Question: With “QVQLVESGGGLVQAGGSLRLSCAASGSIFVYYAMGWYRQAPGKERELVAAITSGGSTNYADSVKGRFTISRDNAQNTVYLQMNSLKPEDTAVYYCAVVTRAHPEDYWGQGTQVTVSS” as the sequence, how does the “polyreactivity (PSR sort gate)” value read?
Answer: Its value is “high polyreactivity”.

Question: With “QVQLVESGGGLVQAGGSLRLSCAASRIFRGYAMGWYRQAPGKERELVAAIRRGGSTNYADSVKGRFTIARDNAKNTVYLQMNSLKPEDTAVYYCNAYLYFPRYDYWGQGTQVTVSS” as the sequence, how does the “polyreactivity (PSR sort gate)” value read?
Answer: Its value is “high polyreactivity”.

Question: Which “polyreactivity (PSR sort gate)” value does the source give for “QVQLVESGGGLVQAGGSLRLSCAASGFTFAKYVMGWYRQAPGKERELVAAISFSGGSTYYADSVKGRFTISRDNAKNTVYLQMNSLKPEDTAVYYCAALSDSRWHRFGYWGQGTQVTVSS” here?
Answer: Its value is “high polyreactivity”.

Question: Which “polyreactivity (PSR sort gate)” value does the source give for “QVQLVESGGGLVQAGGSLRLSCDASGSTFYSYTMGWSRQAPGKERELVATISWSGSSTYDADSVKGRFTISRDNAKNTVYLQMNSLTPEDTAVYYSAAVHYDKSAYWWWYNYWGQGTLVTVSS” here?
Answer: Its value is “low polyreactivity”.

Question: For “QVQLVESGGGLVQAGGSLRLSCAASGSNFGYYAMAWYRQAPGKERELVAVITWNTGNTYYADSVKGRFTISRDNAKNTVYLQMNRLKPEDTAVYYCAADQTGWGDTYDYWGQGTEVTVSS”, which “polyreactivity (PSR sort gate)” value is on record?
Answer: The value was “low polyreactivity”.

Question: Which “polyreactivity (PSR sort gate)” value does the source give for “QVQLVESGGGLVQAGGSLRLSCAASGRTLAFNAMGWYRQAPGKERELVAVIRNGTSTNYADSVKGRFTISRDNAKNTVYLQMNSLKPEDTAVYYCNVPYYLPSYLSGYDYWGQGTQVTVSS” here?
Answer: The value was “low polyreactivity”.

Question: For “QVQLVESWGGLVQAGGSLRLSCAASGRTLGRNAMGWYRQAPGKEREWVASISSGGSTNYADSVKGRFTISRDNAKNTVYLQMNSLKPEDTAVYYCNKRYRSLYSSGYDYWGQGTQVTVSS”, which “polyreactivity (PSR sort gate)” value is on record?
Answer: The value was “high polyreactivity”.
